In patent publication US20170267737A1 (published 2017):

Biological target: T1, glypican-3 (GPC3) peptide on HLA-A*02:01 (human)
T1 peptide: FIDKKVLKV
Test: multimer staining

B1: TCR P1-1 (TCR, V domains shown)
Valpha: AQSVTQPDIHITVSEGASLELRCNYSYGATPYLFWYVQSPGQGLQLLLKYFSGDTLVQGIKGFEAEFKRSQSSFNLRKPSVHWSDAAEYFCAVGVLNFGNEKLTFGTGTRLTIIP
Vbeta: SQTIHQWPATLVQPVGSPLSLECTVEGTSNPNLYWYRQAAGRGLQLLFYSVGIGQISSEVPQNLSASRPQDRQFILSSKKLLLSDSGFYLCAWSEDTAYYGYTFGSGTRLTVV
**Q.** Does B1 bind?
**A.** recognises
